Measured values taken from patent US7618800B2, “Glycerol kinase, which has high resistance against preservative” (Toyo Boseki Kabushiki Kaisha, priority 2002, dated 2009).

Key:
[1] = Glycerol kinase activity by rate assay (relative activity of purified enzyme); assay type: biochemical; details: protein approximated from absorbance at 280 nm
Description: (§1) Generally, the activity was assayed by the method. Using glycerol as substrate, the enzyme activity was assayed on the basis of the amount of produced glycerol-3-phosphoric acid. By adding 0.1 M HEPES buffer of pH 7.9 to 0.2 ml of 0.5% 4-aminoantipyrine solution, 0.2 ml of 1.5% phenol solution, 200 U of the oxidase of glycerol-3-phosphoric acid, 80 U of peroxidase, and 48.4 mg of ATP, a total volume is adjusted to be 21 ml. The resulting solution was used as the stock solution for the following assays. To 3 ml of the assay stock solution, 50 μl of 0.3 M glycerol solution and 100 μl of the enzyme solution were added and mixed. Each reaction was assayed by recording the absorbance at 500 nm for 3 minutes with a spectrophotometer which is controlled to be 37° C., and calculating the change of the absorbance per minute on the initial linear part (triangle OD test). A blank test was conducted by adding 100 μl of a diluted enzyme solution (20 mM potassium phosphate buffer of pH 7.5 containing 0.2% bovine serum albumin) instead of the enzyme solution and carrying out the same procedures as described above and calculating the change of the absorbance per minute (triangle OD blank).
Based on the change of the absorbance as obtained, the enzyme activity of glycerol kinase was calculated according to the following formula. […]

[2] = Km value for glycerol (Lineweaver-Burk, assay method 1); assay type: biochemical; details: glycerol concentration changed
Description: as §1, with “blank). […]” for “blank).”

[3] = Km value for ATP (Lineweaver-Burk, assay method 1); assay type: biochemical; details: ATP concentration changed
Description: as §1, with “blank). […]” for “blank).”

[4] = Optimal pH (assay method 3); assay type: biochemical; details: 50 mM buffers, 37° C.
Description: Glycerol kinase activity was assayed after reaction in each 50 mM buffer at 37° C. for 5 minutes. […] Black circles express the reaction in the presence of 50 mM MES buffer; black squares express the reaction in the presence of 50 mM HEPES buffer; black diamonds express the reaction in the presence of TAPS buffer; black triangles express the reaction in the presence of 50 mM CHES buffer; and white circles express the reaction in the presence of 50 mM glycine-NaOH.
After dividing 3 ml of an active reaction solution (50 mM buffer at each pH, containing 4 mM ATP and 2 mM magnesium chloride) in a test tube, 0.1 ml of a glycerol kinase solution after dilution to an appropriate concentration (about 1 U/ml of the activity measured according to the assay method 1) was added thereto and mixed thoroughly. […] After adding 0.15 ml of the reaction-terminated solution to 3 ml of a chromogenic solution (0.2 M HEPES buffer of pH 7.9 containing 0.01% 4-aminoantipyrin, 0.02% phenol, 5 U/ml peroxidase and 16 U/ml glycerol-3-phosphoric acid oxidase) and mixing, reaction at 37° C. for about 5 minutes was carried out to measure the absorbance at 500 nm. Then, the absorbance of 1 mM L-glycerol-3-phosphoric acid solution was simultaneously measured. The amount of L-glycerol-3-phosphoric acid produced via each enzyme reaction was determined. […]

[5] = Optimal temperature (assay method 2); assay type: biochemical; details: reaction in 20 mM HEPES buffer, pH 7.9 for 5 minutes
Description: Glycerol kinase activity was assayed after reaction in […], pH 7.9 at each temperature for 5 minutes.
After dividing 3 ml of an active reaction solution (20 mM HEPES buffer of pH 7.9 containing 4 mM ATP and 2 mM magnesium chloride) in a test tube, 0.1 ml of a glycerol kinase solution after dilution to an appropriate concentration (about 1 U/ml of the activity measured according to the assay method 1) was added thereto and mixed thoroughly. Then, the reaction mixture is preliminarily heated at each temperature for about 3 minutes. Then, 0.05 ml of aqueous 0.3 M glycerol solution was added and mixed for initiating the reaction. After the reaction for exact 10 minutes, 1 ml of 1N hydrochloric acid was added to terminate the enzyme reaction. After adding 0.15 ml of the reaction-terminated solution to 3 ml of a chromogenic solution (0.2 M HEPES buffer of pH 7.9 containing 0.01% 4-aminoantipyrin, 0.02% phenol, 5 U/ml peroxidase and 16 U/ml glycerol-3-phosphoric acid oxidase) and mixing, reaction at 37° C. for about 5 minutes was carried out to measure the absorbance at 500 nm. Then, the absorbance of 1 mM L-glycerol-3-phosphoric acid solution was simultaneously measured. The amount of L-glycerol-3-phosphoric acid produced via each of the reactions was determined. […]

[6] = pH stability of glycerol kinase; assay type: physicochemical; details: 20 hr treatment at 25° C.
Description: Glycerol kinase was dissolved in each of 50 mM buffers to become about 10 U/ml and stored at 25° C. for 20 hours. Subsequently, glycerol kinase activity was assayed to determine remaining activity. […] Black circles express the reaction in the presence of acetate buffer; black squares express the reaction in the presence of potassium phosphate buffer; black diamonds express the reaction in the presence of CHES buffer; black triangles express the reaction in the presence of CAPS buffer.

[7] = Thermal stability of glycerol kinase; assay type: physicochemical; details: 50 mM potassium phosphate buffer, pH 7.5, 15-min treatment
Description: Glycerol kinase was dissolved in 50 mM potassium phosphate buffer of pH 7.5 to become about 10 U/ml and stored at each temperature for 15 minutes. Subsequently, glycerol kinase activity was assayed to determine the remaining activity.
After dissolving the glycerol kinase in 50 mM potassium phosphate buffer of pH 7.5 to become about 10 U/ml, glycerol kinases were stored at each temperature for 15 minutes to assay the remaining activity. […] Black circle expresses glycerol kinase of the present invention; black squares expresses glycerol kinase from Thermus fiavus.

[8] = Resistance against preservative (remaining activity ratio); assay type: physicochemical
Description: (§2) After dissolving glycerol kinase from each origin in 50 mM potassium phosphate buffer of pH 7.5 to become about 5 U/ml, each preservative was added at a concentration shown in the figure and stored at 4° C. for one week, to assay the remaining activity. […] The remaining activity ratio of the enzyme from each origin is shown in the order from the top as the activity when 0.3 mM ProClin® 300 is present, 0.8 nM ProClin® 150 is present, 500 mg/L IZU is present, 100 mg/L MIT is present and no preservative is added.
as §2, with “25°” for “4°”, “week” for “week,”, “mM” for “nM”
The resistance against preservative in the present invention can be evaluated on the basis of the remaining activity ratio when about 5 U/mL glycerol kinase coexists with preservative at 25° C. for one week in 50 mM potassium phosphate buffer of pH 7.5.
The Km values of glycerol and ATP were calculated according to the Lineweaver-Burk equation according to the method described in the section “Method for assaying glycerol kinase activity” <method 1>, wherein the concentration of glycerol or ATP was changed to assay the glycerol kinase activity at each substrate concentration. • (8) Relative activity: About 41.2 U/mg • (9) Resistance against the presence of preservative: Remaining activity ratio in coexistence with 100 mg/L MIT in 50 mM potassium phosphate buffer of pH 7.5 is shown in FIGS. 5 and 6. The activity was assayed according to the method 1.

B1: glycerol kinase of the present invention: Recombinant glycerol kinase (SEQ ID NO:1) of Cellulomonas sp. JCM2471 gene, expressed in E. coli KM1 (pCGK12) and purified (protein)
chain: MADYVLAIDQGTTSSRAIVFNHSGEIYSTGQLEHDQIFPRAGWVEHNPEQIWNNVREVVGLALTRGNLTHEDIAAVGITNQRETAVVWDKTTGKPVYNAIVWQDTRTQKIVDELGGDEGAEKYKSIVGLPLATYFSGPKIKWILDNVEGAREKAEKGDLLFGNTDTWVLWNMTGGTEGGVHVTDVTNASRTMLMDLDTLSWREDIAADMGIPLSMLPDIRSSSEVYGHGRPRGLVPGVPIAGILGDQQAATFGQACFEVGQAKNTYGTGNFLLLNTGTEKVMSKNGLLTTVCYKIGDAPAVYALEGSIAVTGSLVQWLRDNLGMFEDAPDVEWLAGKVQDNGGAYFVPAFSGLFAPYWRPDARGALVGLTRYVNRNHIARAALEATAFQSREVVDAMNADSGVDLTELRVDGGMVANELLMQFQADQLGVDVVRPKVAETTALGAAYAAGIAVGFWKGEQDVIDNWAEDKRWSPSMESGERERLYRNWKKAVTKTMEWVDEDVEQ
modifications: Cellulomonas sp. JCM2471
notes: JCM2471 gene, expressed in E. coli KM1 (pCGK12) and purified
Relative activity [1]: about 41.2 U/mg protein
Km [2]: ~6.9 µM
Km [3]: ~111 µM
Optimal pH [4]: about 10.0
Optimal temperature [5]: about 50 °C
pH stability (pH range with remaining activity of 90% or more) [6]: 6.0-10.0
Thermal stability (temperature range with remaining activity of 90% or more) [7]: ≤ 45 °C
Remaining activity ratio ([8]; 100 mg/L MIT, 50 mM potassium phosphate buffer pH 7.5, storage at 4° C. for one week): ~100%
Remaining activity ratio ([8]; 100 mg/L MIT, 50 mM potassium phosphate buffer pH 7.5, storage at 25° C. for one week): about 92%
Stability in the coexistence of preservatives (in words) ([8]; compared with glycerol kinase derived from Thermus flavus): high stability in the coexistence of preservatives
Remaining activity ratio ([8]; storage at 25° C. for one week in coexistence with preservatives (sentence names none)): ≥ 90%
